Here are results for two substances from article PMC10568284.

Test [1] addresses antithrombin (UniProt P01008). As to the kind of experiment: SPR. Background: In SPR one partner is held on a chip, and binding of the other changes the refractive index at the surface.
The target of test [2] is tissue factor pathway inhibitor alpha (human) (UniProt P10646). Nature of the test: SPR.
UniProt P10646, sequence (P10646 29-304): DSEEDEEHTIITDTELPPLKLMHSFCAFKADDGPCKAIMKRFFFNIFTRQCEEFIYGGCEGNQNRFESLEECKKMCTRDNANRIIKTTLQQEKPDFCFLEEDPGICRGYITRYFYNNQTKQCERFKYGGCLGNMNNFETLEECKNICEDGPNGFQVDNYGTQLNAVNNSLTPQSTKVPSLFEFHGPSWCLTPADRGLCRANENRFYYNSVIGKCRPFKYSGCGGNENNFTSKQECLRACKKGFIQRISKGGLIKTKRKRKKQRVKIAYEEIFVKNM

UniProt P01008, sequence (P01008 33-464): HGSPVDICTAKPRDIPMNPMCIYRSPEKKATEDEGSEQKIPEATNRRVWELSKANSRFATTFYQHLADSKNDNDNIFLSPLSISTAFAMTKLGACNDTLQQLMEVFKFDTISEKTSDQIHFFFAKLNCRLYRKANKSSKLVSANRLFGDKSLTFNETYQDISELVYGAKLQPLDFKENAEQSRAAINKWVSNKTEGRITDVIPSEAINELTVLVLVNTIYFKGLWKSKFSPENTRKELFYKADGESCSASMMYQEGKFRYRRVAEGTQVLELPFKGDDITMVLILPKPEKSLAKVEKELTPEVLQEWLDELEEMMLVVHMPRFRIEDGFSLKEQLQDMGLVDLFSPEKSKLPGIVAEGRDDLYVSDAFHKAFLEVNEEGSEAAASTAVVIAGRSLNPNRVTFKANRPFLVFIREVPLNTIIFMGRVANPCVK

What is called Kd is the free concentration of one partner at which half of the binding sites on the other are occupied at equilibrium, for simple one-to-one binding. A low value points to tighter binding. “S195A Gla-domainless factor Xa (from UniProt P00742 82-182; P00742 235-488) (domain or fragment)”: the dissociation constant Kd in test [1] was determined as 416 nM; in test [2] it was 2 nM.

In test [1], “K96YS195A GD-FXa (from UniProt P00742 82-182; P00742 235-488) (domain or fragment)” yielded a Kd of 460 nM.
